Measured values as given in patent US20190183138A1, “MILK COAGULANT AND METHOD FOR PRODUCING CHEESE” (CHINA AGRICULTURAL UNIVERSITY, priority 2017, published 2019).

System: 12% skim milk
Assay: Milk clotting activity (MCA) assay, curd formation time
Format: biochemical
Details: 12% skim milk in 10 mM CaCl2, pH 6.5, 37° C.; FIG. 5
Experimental: The MCA of the C. otophyllum proteases was determined using a modified method of He et al. (2011). One milliliter of substrate (12% skim milk in 10 mM CaCl2, pH 6.5) was incubated under 37° C. for 5 min, then 0.1 mL of the protease extracted solution was added. The time needed for curd formation was recorded and the MCA was expressed in Soxhlet units (SU). One SU of MCA was defined as the amount of the protease extracted solution required to clot 1 mL of substrate within 40 min at 37° C.
where V stands for the volume of the substrate (mL); v stands for the volume of the protease extract; and t stands for the milk-clotting time (s).
The C. otophyllum proteases were extracted as described by Huang et al. (2011) with some modifications. The C. otophyllum leaves were cut into pieces, mixed with a buffer at different solid-liquid ratios (i.e. ratio of mass to volume) for extraction, and then left for 2 h under 4° C., thus obtaining an extracted solution. After successive filtration through 4 layers of cheesecloth and a 0.22-μm membrane, the filtrate was concentrated by ultrafiltration with a 10-kDa molecular weight cut-off membrane at 8000 × g for 40 minutes at 4° C., with the retentate obtained as the concentrated solution of C. otophyllum proteases, which was assayed for protein concentration following the method of Bradford (1976) and curd formation time for 12% (w/v) skim milk.

B1: papain (protein, UniProt P00784 134-345, looked up)
Papain: IPEYVDWRQKGAVTPVKNQGSCGSCWAFSAVVTIEGIIKIRTGNLNEYSEQELLDCDRRSYGCNGGYPWSALQLVAQYGIHYRNTYPYEGVQRYCRSREKGPYAAKTDGVRQVQPYNEGALLYSIANQPVSVVLEAAGKDFQLYRGGIFVGPCGNKVDHAVAAVGYGPNYILIKNSWGTGWGENGYIRIKRGTGNSYGVCGLYTSSFYPVKN
notes: cysteine protease from Sigma-Aldrich used as comparison
With B1 the “MCA (milk-clotting activity)” value was 100.2 SU/mg.
